T1: human IL-18R1 ECD-His (human) (UniProt Q13478)
T1 sequence: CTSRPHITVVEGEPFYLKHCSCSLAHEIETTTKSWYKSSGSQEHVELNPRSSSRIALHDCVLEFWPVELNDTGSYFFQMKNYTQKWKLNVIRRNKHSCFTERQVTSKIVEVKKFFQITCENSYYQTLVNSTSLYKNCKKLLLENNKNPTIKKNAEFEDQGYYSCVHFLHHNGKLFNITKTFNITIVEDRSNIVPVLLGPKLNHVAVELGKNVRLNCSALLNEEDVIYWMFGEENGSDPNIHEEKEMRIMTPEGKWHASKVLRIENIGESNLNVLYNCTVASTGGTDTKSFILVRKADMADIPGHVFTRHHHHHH

T2: human IL-18R1 and IL-18RAP on IL-18 Reporter HEK 293 Cells (human, UniProt Q13478 19-541; O95256 20-599)
T2 sequence (looked up) 1: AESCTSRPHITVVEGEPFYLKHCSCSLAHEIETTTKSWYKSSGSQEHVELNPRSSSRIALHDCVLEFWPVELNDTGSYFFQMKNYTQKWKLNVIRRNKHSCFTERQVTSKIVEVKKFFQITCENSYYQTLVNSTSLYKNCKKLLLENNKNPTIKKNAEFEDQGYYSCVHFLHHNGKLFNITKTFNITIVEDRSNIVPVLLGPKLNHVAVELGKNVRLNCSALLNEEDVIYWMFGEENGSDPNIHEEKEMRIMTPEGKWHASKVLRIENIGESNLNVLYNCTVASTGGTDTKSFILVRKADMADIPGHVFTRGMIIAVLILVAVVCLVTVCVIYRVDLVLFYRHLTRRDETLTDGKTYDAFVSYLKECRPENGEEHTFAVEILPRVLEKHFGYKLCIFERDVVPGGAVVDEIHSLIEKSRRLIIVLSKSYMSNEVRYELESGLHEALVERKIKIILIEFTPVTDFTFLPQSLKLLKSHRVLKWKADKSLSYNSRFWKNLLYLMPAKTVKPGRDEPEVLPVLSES
T2 sequence (looked up) 2: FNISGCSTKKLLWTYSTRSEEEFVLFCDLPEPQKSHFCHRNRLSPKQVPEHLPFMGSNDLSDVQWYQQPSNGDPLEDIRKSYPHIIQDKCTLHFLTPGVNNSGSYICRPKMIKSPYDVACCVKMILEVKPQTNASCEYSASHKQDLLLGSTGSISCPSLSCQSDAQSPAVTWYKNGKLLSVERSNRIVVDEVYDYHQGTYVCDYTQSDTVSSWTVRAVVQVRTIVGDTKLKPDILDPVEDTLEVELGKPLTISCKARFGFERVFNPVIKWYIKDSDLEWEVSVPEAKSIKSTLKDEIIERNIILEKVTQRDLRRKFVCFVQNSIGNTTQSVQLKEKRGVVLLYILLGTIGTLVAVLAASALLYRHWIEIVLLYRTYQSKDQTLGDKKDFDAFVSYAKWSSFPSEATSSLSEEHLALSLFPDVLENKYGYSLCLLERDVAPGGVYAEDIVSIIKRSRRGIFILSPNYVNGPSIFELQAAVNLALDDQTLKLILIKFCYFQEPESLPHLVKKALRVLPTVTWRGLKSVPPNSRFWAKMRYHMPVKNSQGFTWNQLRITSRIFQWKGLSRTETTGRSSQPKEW

B1: Wio-02-30 (Rap-C10-GGGGS-R1-C10) (bispecific antibody)
chain: QVQLQESGGGSVQPGGSLRLSCAASGFTYIPAYMGWFRQAPGKERERVASISSTDGSTTYADSVKGRFTVSQDTAKNTLYLQMNSLKPEDTAMYYCAAYQFGAFRVWGQGTQVTVSSGGGGSQVQLQESGGGSVQAGETLRLSCTASGSTFDEYDMGWYRQAPGNKCELVSTISTIDGSTYYADSVKGRFTISQDNTKNTVYLQMNSLKPEDTGVYYCEADDRGTWDRGGCWGQGTQVTVSS
B2: Wio-02-31 (Rap-C10-GGGGS-R1-F9) (bispecific antibody)
chain: QVQLQESGGGSVQPGGSLRLSCAASGFTYIPAYMGWFRQAPGKERERVASISSTDGSTTYADSVKGRFTVSQDTAKNTLYLQMNSLKPEDTAMYYCAAYQFGAFRVWGQGTQVTVSSGGGGSQVQLQESGGGSVQAGETLRLSCTASGFTVHDMGWYRQAPGNECELVSTISSDGSTYYADSVKGRFTISQDNAKNTVYLQMNSLKPEDTAVYYCAADHFTGLQLAECKADFGYWGQGTQVTVSS
B3: Wio-02-23 (R1-F9-GGGGS-Rap-C10) (bispecific antibody)
chain: QVQLQESGGGSVQAGETLRLSCTASGFTVHDMGWYRQAPGNECELVSTISSDGSTYYADSVKGRFTISQDNAKNTVYLQMNSLKPEDTAVYYCAADHFTGLQLAECKADFGYWGQGTQVTVSSGGGGSQVQLQESGGGSVQPGGSLRLSCAASGFTYIPAYMGWFRQAPGKERERVASISSTDGSTTYADSVKGRFTVSQDTAKNTLYLQMNSLKPEDTAMYYCAAYQFGAFRVWGQGTQVTVSS
B4: Wio-02-29 (Rap-A10-GGGGS-R1-A12) (bispecific antibody)
chain: QVQLQESGGGLVQAGGSLKLSCAASGYTYGPYCMGWFRQFPGKEREGVAAVGGDGRTWYGNSVKGRFTISQDNAKKTLYLQINALKPEDTAMYYCAADFDRTVCSDDIYDYTYRGQGTQVTVSSGGGGSQVQLQESGGGPVQAGGSLRLSCSASTTAYDNACMGWFRQAPGKEREGVASIHLRDRTYYADSVKGRFTLSRDGASKTLYLQMNSLKPEDSGTYYCASSNICNGLNLQGNTYWGQGTQVTVSS
B5: hzWio-02-01-His (bispecific antibody)
chain: EVQLVESGGGLVQPGGSLRLSCAASGTAYDNACMGWFRQAPGKEREGVASIHLRDRTYYADSVKGRFTISRDNSKNTLYLQMNSLRAEDTAVYYCASSNICNALNLQGNTYWGQGTLVTVSSGGGGSEVQLLESGGGLVQPGGSLRLSCAASGYTYGPYCMGWFRQAPGKEREGVAAVGGDARTWYGNSVKGRFTISRDNSKNTLYLQMNSLRAEDTAVYYCAADFDRTVCSDDIYDYTYRGQGTLVTVSSHHHHHH
B6: hzWio-02-11-His (bispecific antibody)
chain: EVQLVESGGGLVQPGGSLRLSCAASGSTFDEYDMGWYRQAPGGKCELVSTISTIDASTYYADSVKGRFTISRDNSKNTLYLQMNSLRAEDTAVYYCEADDRGTWDRGGCWGQGTLVTVSSGGGGSEVQLVESGGGLVQPGGSLRLSCAASGFTYIPAYMGWFRQAPGKERERVASISSTEGSTTYADSVKGRFTISQDNSKNTLYLQMNSLRPEDTAVYYCAAYQFGAFRVWGQGTLVTVSSHHHHHH
B7: hzWio-02-31 (His form) (bispecific antibody)
chain: EVQLVESGGGLVQPGGSLRLSCAASGFTYIPAYMGWFRQAPGKERERVASISSTEGSTTYADSVKGRFTISQDNSKNTLYLQMNSLRPEDTAVYYCAAYQFGAFRVWGQGTLVTVSSGGGGSEVQLVESGGGLVQPGGSLRLSCAASGFTVHDMGWYRQAPGKECELVSTISSDASTYYADSVKGRFTISRDNAKNTLYLQMNSLRAEDTAVYYCAADSFTGLQLAECKADFGYWGQGTLVTVSSHHHHHH
B8: hzWio-02-30 (His form) (bispecific antibody)
chain: EVQLVESGGGLVQPGGSLRLSCAASGFTYIPAYMGWFRQAPGKERERVASISSTEGSTTYADSVKGRFTISQDNSKNTLYLQMNSLRPEDTAVYYCAAYQFGAFRVWGQGTLVTVSSGGGGSEVQLVESGGGLVQPGGSLRLSCAASGSTFDEYDMGWYRQAPGGKCELVSTISTIDASTYYADSVKGRFTISRDNSKNTLYLQMNSLRAEDTAVYYCEADDRGTWDRGGCWGQGTLVTVSSHHHHHH
B9: hzWio-02-05-His (bispecific antibody)
chain: EVQLVESGGGLVQPGGSLRLSCAASGNLYRDPCMGWFRQAPGKDREGVAAMNTGADSTFYARSVKGRFTISRDNAKNTLYLQMNSLRAEDTAVYYCAASRYCTERTYTWRYDYDYWGQGTLVTVSSGGGGSEVQLVESGGGLVQPGGSLRLSCAASGFTYIPAYMGWFRQAPGKERERVASISSTEGSTTYADSVKGRFTISQDNSKNTLYLQMNSLRPEDTAVYYCAAYQFGAFRVWGQGTLVTVSSHHHHHH
B10: hzWio-02-29 (His form) (bispecific antibody)
chain: EVQLLESGGGLVQPGGSLRLSCAASGYTYGPYCMGWFRQAPGKEREGVAAVGGDARTWYGNSVKGRFTISRDNSKNTLYLQMNSLRAEDTAVYYCAADFDRTVCSDDIYDYTYRGQGTLVTVSSGGGGSEVQLVESGGGLVQPGGSLRLSCAASGTAYDNACMGWFRQAPGKEREGVASIHLRDRTYYADSVKGRFTISRDNSKNTLYLQMNSLRAEDTAVYYCASSNICNALNLQGNTYWGQGTLVTVSSHHHHHH
B11: hzWio-02-23-His (bispecific antibody)
chain: EVQLVESGGGLVQPGGSLRLSCAASGFTVHDMGWYRQAPGKECELVSTISSDASTYYADSVKGRFTISRDNAKNTLYLQMNSLRAEDTAVYYCAADSFTGLQLAECKADFGYWGQGTLVTVSSGGGGSEVQLVESGGGLVQPGGSLRLSCAASGFTYIPAYMGWFRQAPGKERERVASISSTEGSTTYADSVKGRFTISQDNSKNTLYLQMNSLRPEDTAVYYCAAYQFGAFRVWGQGTLVTVSSHHHHHH
B12: hzWio-02-09 (His form) (bispecific antibody)
chain: EVQLVESGGGLVQPGGSLRLSCAASGSTFDEYDMGWYRQAPGGKCELVSTISTIDASTYYADSVKGRFTISRDNSKNTLYLQMNSLRAEDTAVYYCEADDRGTWDRGGCWGQGTLVTVSSGGGGSEVQLVESGGGLVQPGGSLRLSCAASGFTYIPAYMGWFRQAPGKERERVASIKTDASTTYADSVEGRFTISQDNAKNTLYLQMNSLRPEDTAVYYCAAYQFGAFRVWGQGTLVTVSSHHHHHH
B13: hzWio-02-44 (His form) (bispecific antibody)
chain: EVQLLESGGGLVQPGGSLRLSCAASGYTYGPYCMGWFRQAPGKEREGVAAVGGDARTWYGNSVKGRFTISRDNSKNTLYLQMNSLRAEDTAVYYCAADFDRTVCSDDIYDYTYRGQGTLVTVSSGGGGSQVQLQESGGGSVQAGGSLRLSCVASGTTMSMNYMAWFRQAPGKEREGVASIFRSTHYADSVKGRFTIAEDSAKNTVYLQMNSLKPEDTAVYYCAAGRTKPYLTPLAESQYNYWGQGIQVTVSSHHHHHH

“And” between values parts separate entries of the source, which are not always exact repeats. Identical values can stand only once.

The target of one experiment is T1, human IL-18R1 ECD-His (human). As to the kind of experiment: sandwich ELISA, IL-18RAP ECD-hFc detection. A general note: An ELISA detects its analyte on a solid surface through an enzyme-linked reagent.
Consider B1, for which the ELISA OD was 2.16 and 2.29.

As for B2, the ELISA OD is 2.17 and 2.18.

In the case of B3, the ELISA OD was 1.73 and 1.83.

As to B4, the ELISA OD was 2.05 and 2.04.

Another experiment addresses T2, human IL-18R1 and IL-18RAP on IL-18 …. As to the kind of experiment: cell-based or functional assay.
As for B5, the half-maximal effective concentration (EC50) – broadly, the midpoint of the concentration-response curve – was 2.3 ng/mL and the Top530nm amounted to 1.05.

The target is the same in a further experiment. As to the kind of experiment: cell-based or functional assay. The source holds these as a separate data set.
Turning to B1, the “SEAP reporter OD, supernatant 5X” value stood at 1.59 and the “SEAP reporter OD, supernatant 25X” value turned out to be 1.18.

As to B2, the “SEAP reporter OD, supernatant 5X” value stood at 1.66 and the “SEAP reporter OD, supernatant 25X” value is 1.77.

On to B3, for which the “SEAP reporter OD, supernatant 5X” value is 1.78 and the “SEAP reporter OD, supernatant 25X” value stood at 1.9.

Take B4: the “SEAP reporter OD, supernatant 5X” value turned out to be 1.51 and the “SEAP reporter OD, supernatant 25X” value came out at 1.23.

A further experiment shares this target. Nature of the experiment: cell-based or functional assay. The source holds these as a separate data set.
The molecule B5 yielded an EC50 of 0.417 ng/mL and a Top630nm of 1.93.

Molecule B6 had a concentration giving a half-maximal response (EC50) of 0.101 ng/mL and a Top630nm of 1.58.

B7 showed an EC50 of 2.58 ng/mL and a Top630nm of 0.779.

Consider B8, for which a half-maximal response (EC50) required 2.74 ng/mL and the Top630nm was found to be 0.837.

In turn, B9 came in with an EC50 of 0.201 ng/mL and a Top630nm of 1.72.

The molecule B10 yielded an EC50 of 0.503 ng/mL and a Top630nm of 1.61.

In the case of B11, a half-maximal response (EC50) required 0.13 ng/mL and the Top630nm was 1.95.

Molecule B12 showed an EC50 of 0.668 ng/mL and a Top630nm of 1.88.

B13 displayed an EC50 of 2.66 ng/mL and a Top630nm of 0.912.

The values are drawn from patent EP4711384A1 (WIO Bioscience Co., Ltd., dated 2026).
